Source: paper PMC3349339 (Journal of Molecular Biology, 2012)

What was measured:
[1] = target: HLA-DR1 with a His→Asn substitution at position β81 (human)
[2] = target: HLA-DR1 with a His→Asn substitution at position β81 (human); assay: fluorescence polarisation

| Substance | Kd [1] | t1/2 [2] |
| --- | --- | --- |
| HA peptide P9 S (from UniProt P03437 322-334) | 0.13 µM |  |
| HA peptide P9 A (from UniProt P03437 322-334) | 0.126 µM |  |
| fluorescein-labelled HA peptide P1,9 VA (from UniProt P03437 322-334) |  | 14.4 h |
| HA peptide P1,9 LS (from UniProt P03437 322-334) | 1.88 µM |  |
| HA peptide P1,9 VA (from UniProt P03437 322-334) | 0.739 µM |  |
| HA peptide P1,9 VS (from UniProt P03437 322-334) | 8.17 µM |  |
| HA peptide P1 V (from UniProt P03437 322-334) | 0.0894 µM |  |
| fluorescein-labelled HA peptide P1,9 LA (from UniProt P03437 322-334) |  | 34 h |
| fluorescein-labelled HA peptide P1 L (from UniProt P03437 322-334) |  | 55.6 h |
| HA peptide P1 L (from UniProt P03437 322-334) | 0.0679 µM |  |
| HA peptide P1,9 LA (from UniProt P03437 322-334) | 0.206 µM |  |
| fluorescein-labelled HA peptide P1 V (from UniProt P03437 322-334) |  | 47.9 h |
| fluorescein-labelled HA peptide P1,9 LS (from UniProt P03437 322-334) |  | 5.93 h |
| fluorescein-labelled HA peptide P1,9 VS (from UniProt P03437 322-334) |  | 1.65 h |
| fluorescein-labelled HA peptide P9 A (from UniProt P03437 322-334) |  | 43.6 h |
| fluorescein-labelled HA peptide P9 S (from UniProt P03437 322-334) |  | 19.3 h |
